# Experiment: soluble on expression in E. coli; label from the status in PepcDB or PDB records
row,Sequence,soluble on expression in E. coli
1,MFQNHKIMDLEVRTRLDDNRNLREVRIIPLGSGYNVGIVYSKEISDISDLNPKRILGIDMGVRNIVTIGNNMSEEGIAVKGGVLRSINQYFNKELSKLKSVSDRQNDGKGNTRRIKNLYAVRNGKIKDIMHKLSRAIIRYALSMNVDTIVIGHSQGWKHTPDMGKKNNQNFVQIPFNILIEQIRYKGQEAGINVIVLDESYTSVCSFIDNESIEKHETYMGKRIKRGIFRSHKGILIHADLNALYNTIKKAISEAFADGIEGIGLYPRSLSIREMITSKGLRLEHHHHHH,soluble
2,MKIAHISDLHVKCEWYEDRLGNNLVKYLNAQKPDLLIITGDLTDYGYYAEYKRAYSFLELIEVEKRVVVPGNHDARNEGYELFEEFFGTRMPYYEDEYMVIIGMDSSLPDREEGHIGRKGYKFLRETLKDKGDKLKIVALHHHVVPIPATGSDLAILTDAGNLMKVVDELGVELVLTGHKHKAWVWKLNETYYVTAGTATTRRLKAKDYPSFYMLYLEDEKNIRMEKVNTETLKVEEVYTLNFEEGKER,not soluble
3,MNGKPDLVITDSQVFKQVNAKLDRSVPLTSFSILMARYKGDLDKFYSGAKAIKNLKAGDKVLIAEACTHHQLKGDIAREKLPTWLEETCPGIIVHNCSGKDFPKNLNEYALVIHCGGCMFNKAEIMNRIGICDDALVPITNFGTSIAEINNILDRVMEPLKLEHHHHHH,not soluble
4,MGHHHHHHSHMSNWLEHSVQVEVEAPIDLVWGLWADLEQMPNWMKWIDSVKVPPENPDLSLWKLNTGGLEFTWKSRITKVITNQIIQWESIDGLPNQGAIRFYDRHGHSIVKMTISYAIPGFLGKIMDNLFLG,not soluble
5,MQTLILMAYIKRLVSEGKHASLREAYYANKHTVPGTRENTFEDQSESDPIIEDLERMLGVLREEMHITADRRGYIYGDIVIKDGEDEFNASKLGTGGWAVPGTVEHIQFPEINVDYVLVVETAAMADRLIEEKYPKRENCLIVATQGQASRGVRRLIHRLHYEEGLPIIVFTDGDPYGWYIYSTIKRGSINLAYLSEKLATPDAKFVGMTMDDIKEYNLENVTEKLKGIPPDKKGGPTGDYKRLIEELNYPWFQDKEWQRQLKLALKWGVRIEQQALANKSLEFVAKEYLPEKIREGKLLP,soluble
6,EGSIGNGLDLTGILFGNIDSEGRLLQDDDGEGRGGTGFDAELRENIGSLSKLGLDSMLLEVIDLKEA,soluble
7,MTLDVGPEDELPDWAAAKEFYQKYDPKDVIGRGVSSVVRRCVHRATGHEFAVKIMEVTAERLSPEQLEEVREATRRETHILRQVAGHPHIITLIDSYESSSFMFLVFDLMRKGELFDYLTEKVALSEKETRSIMRSLLEAVSFLHANNIVHRDLKPENILLDDNMQIRLSDFGFSCHLEPGEKLRELCGTPGYLAPEILKCSMDETHPGYGKEVDLWACGVILFTLLAGSPPFWHRRQILMLRMIMEGQYQFSSPEWDDRSSTVKDLISRLLQVDPEARLTAEQALQHPFFERCEGSQPWNLTPRQRFRVAVWTVLAAGRVALSTHRVRPLTKNALLRDPYALRSVRHLIDNCAFRLYGHWVKKGEQQNRAALFQHRPPGPFPIMGPEEEGDSAAITEDEAVLVLG,soluble
8,MISHSELRKLFYSADAVCFDVDSTVIREEGIDELAKICGVEDAVSEMTRRAMGGAVPFKAALTERLALIQPSREQVQRLIAEQPPHLTPGIRELVSRLQERNVQVFLISGGFRSIVEHVASKLNIPATNVFANRLKFYFNGEYAGFDETQPTAESGGKGKVIKLLKEKFHFKKIIMIGDGATDMEACPPADAFIGFGGNVIRQQVKDNAKWYITDFVELLGELEE,soluble
9,MLIPGAHYRGDVPMYPASVVKLFYLVACHEWLHSGMLQPDAELERAMRDMIVDSSNDATSLVVDMLTGTTSGPVLPPEPFRTWQYQRNIVNRYFQSLGWPELTQINVNQKTWCEGPYGREQEFVGRDRQNANRLTTNATAKLIHSIVGGVAVSASASQGMMELMERSLDPELLAQDPENQVQGFLGEGLPPGAKLWSKAGLTSWVRHDAAYIELPDRCPYTLVVFMENSTASKNTEVLPFISRQIASGILEHHHHHH,not soluble
10,MNVLSPHIALYRLFDVADEIDLGRLSTPRLRLSRARLGAVRFENPPGEMELGVRNVEGLSGLLTARLYEFGVVSLSFRIHLGERVPWEAFLEKGLRIPELPFWEGFFLAELAALEPHLRGALLRPEEKRLSEEFVVYHALGLEGEKAFRPSVDLTPLWMGAEEEFAPEVRREVERYRYSYSTEDLALLGFDRVLILDSEGIWDVADLVEFVHAQLLELSYYDRVLTEELELVPQVLRHRGLWGYGRLQRLRRRLMARHAEIADVKARMEGALRITEDLFYAKIYRAALELYGAYELEKSVEEKLRVLEATYEMVTEEVAHLRTQAVEVAILALIAFEVVRALH,soluble
11,MVGGGGVKFIEMDIRDKEAYELAKEWFDEVVVSIKFNEEVDKEKLREARKEYGKVAILLSNPKPSLVRDTVQKFKSYLIYVESNDLRVIRYSIEKGVDAIISPWVNRKDPGIDHVLAKLMVKKNVALGFSLRPLLYSNPYERANLLRFMMKAWKLVEKYKVRRFLTSSAQEKWDVRYPRDLISLGVVIGMEIPQAKASISMYPEIILKRLKY,soluble
12,MAHHHHHHMFSFYIYRKKTISWDEVTINEQDKERGSRMKILEPNTPFNFILMDSASEDEASKYGDVKGSDEGQNNIADDLINKLNQLVEKQENKGVSNIDFKEKRKKHYNEYKMLQKLRKSGTLDDIDEEYKPDNKDSNCDNSVSQEFPCYIARNFVVISL,not soluble
13,MAHHHHHHMTKSYLNQDQQLRAQQVYTTHKHLKELSMATKEALTYHDKYLAAMEHVMSCLLNNSDALEDARKHLTQEAAVDIQPTFPTAGRLAAAYSNWRVSAELHMMRTELEFLKEVSTTGHEAVKKTKNAVHGLEKVAKKCAHVNSPEFEAKISSKSGKALEKLLHEQRETNTMMMSIENAIKKDMMSLATSWSAKLVTRGDALYTAFRSLGCRTVACFPTTDPTLSQGMPPPAAGYVLSQPSSASTSVPYSGGTAVGHGTPSTLPAAQSVECAAVPLSSAGEGAAAGVKLEFNLNEGKPVSR,soluble
14,MRAFKAHLRGLSPYPYKKEEAPVKLDQNESPFDLPGALKEEALGRLRAIPWNRYPEIHAESLRKRLSALLDWPEEGIVLAPGSNLLILALSLAAEEVLDLRPSFPHYAHAAKVAGTPYRAVPLGEGFSLDLKALLAAFRGGVLFLPNPHAPTGALFPEEALRALAERAKEVGGLLVVDEAYREFAGTDFRFLARENPHVALLRTFSKAFSLGGVRAGYLLGSPEVAGVVREVLPPFVLPAHTGAVLEVVLENPGYVEKVVEEVVAQRERVYRELLAHPTWRPYPSRTNFLLVRTPDAEEAFRHLLSQGVLVRRQDRYPGLAGCLRVTVGRREEMDAFLRAAFGVAYA,soluble
15,MNVSVVIPALNEEATVADVVALSRRGSDEVIVIDSDSTDATAARAKAAGASVVNWRDVVSLPPIPGKGEALWRGVAAARGDVVVFLDADLTEISPTIVEDLARPFIDDSVMLAKAAYTRGDASGGGGRVTELTARPLLEAFFPELGFVRQPLGGEYAIRRSAALDLPFVGGYGVEVGLLIDVFRCFGAASIVEVEAGHRGHRHRPLRELAPMARVVASTILQRAGVASGLDGVGQRPAISSLESGVGKV,not soluble
16,MNPIEIIDKFYPQDTEQRHILLIHSLSVAQKALKIVDAHPNLPINRSFVREAALLHDIGIFMTDAPTIQCFGEHPYIAHGYLGADLLRKEGFERHALVCERHTGAGLTLEEIIERQLPVPHREMVPVTLEEQIICFADKFFSKTHLDEEKTVEKARKSIAKYGEEGLNRFDGWCSLFL,not soluble
17,MLEACTKCGTCAEACTMYLGSGRKKIYSPVYRSDMLRKIYKKHFTLTGKLFGPLIGAKDPTEDDINALAESAYRCTVCRRCALACPFGLDNGLITRETRKIFADLGILEHHHHHH,not soluble
18,MSLSDPIKITFSVEGLSHPFLVKQKQLAEETGKRLGAQVNVISANDDVNQQFNDIQTAIAQGTDALMMMPATTQGLDAVLKQAEAAQIPYFFSQKGMLGVEPASQVLAPYSNEGQQLGEWVVEHYKGQEDVKVAIISGIPGDQSSDARVNSFLLPLLRSCNFNVVANQPGNYRRGDSEKAAQNMLAANPDIDLLFGANDEAALGGIAALKSSGRQGVDVVGLDGQTDMFAAIQSGQALATVIHKPTAGIVVEEAVDYLRGKPVPEYRVLDEDLVTKETIETGAQPAEGHHHHHH,soluble
19,MSLATEQIQHIAIVGCVHGKYREMYRQLSEYEKSTGKEISFVICTGDMQTLRYEADLVYLKVPPKYKQMGDFHLYYEGKEKAPYLTLFIGGNHESSNVLLHLYNGGFVCFNMYYLGVCSCININGLRIVGVSGIYKSFDEKKPYTYPPSPNDVVSLFHTRNYVIQMLSNLSQSSQIDISLSHDWPQGIVMKGNYKQLYRFQPGFKKDGASLGSPINKVILNTLKPKYWISGHMHCEYHAEEGPTHFIALGKIGYKNAISYLDLPLKQKTDLEYDKDWVCNLIMTWPAFSNKAQFPDLSYSISELLSKRTKELDKKIIELWEKYIGLKIIYDSEGHHHHHH,not soluble
20,MGSDKIHHHHHHMRSPVPRVAAIHDLSGFGRTSLTVAIPVLSAMGIQVCPMPTAMLSTHTSGFKGFSFIDLTAEMRRFFDHWKSLNIRFDAIYSGFLGSPDQVAIVAQCIDMFRTPDGFAVVDPVLGDNGELEPTMDMEMVHRMRWLVSKADIITPNFTEAALLLDEPYREHIDQPTLKDWLRRLTAMGPHVAVVTSVPVEGSRTTTSVVAYNRPHDRFWKVDCQYIPAHYPGTGDTFASVLTGSILQGDSLPIAIERAVQFVTMGIRATFGHNSPSREGILLERVLDTLRAPVTMSSYELLEE,not soluble
21,MGSDKIHHHHHHMTKVKLNFNKPSNVFNRNIFEILTNYDNFTEVHYGGGSSGKSHGVIQKVVLKALQDWKYPRRILWLRKVQSTIKDSLFEDVKDCLINFGIWDMCLWNKTDNKVELPNGAVFLFKGLDNPEKIKSIKGISDIVMEEASEFTLNDYTQLTLRLRERKHVNKQIFLMFNPVSKLNWVYKYFFEHGEPMENVMIRQSSYRDNKFLDEMTRQNLELLANRNPAYYKIYALGEFATLDKMVFPKYEKRLINKDELRHLPSYFGLDFGYVNDPSAFIHSKIDVKKKKLYIIEEYVKQGMLNDEIANVIKQLGYAKEEITADSAEQKSIAELRNLGLKRILPTKKGKGSVVQGLQFLMQFEIIVDERCFKTIEEFDNYTWQKDKDTGEYTNEPVDTYNHCIDSLRYSVERFYRPVRKRTNVSSKVDTIKSLGL,not soluble
22,MAHHHHHHMMSVANAAYLPLIGSCLTAGEQTALQCSLPLLSQRYRGTPMQLWGKVTGIKANYWVAQAFPNGEFAPAVSFYSIDGGSTWTMLSELTEEQAALCEALRGPYQGVPSYEYMMRQDLPAETDEAAVTMPTPDDILKKAEDDIAAARAASDANSDADESEGDDEEQDDEEEEDEEDAGAVLAPRKRMAKFRILSVTEAMRLAHFVQLHDADCRLTVRGMYVLQDGAAVGARNSTFGGQPLHNAKKPSCYVKMARAGTEERNRILYGLTYNPHTDYLMPITDDAPAGVWSVKYNATANVVSVRNLFYEGSLFWYRPGTLECGQVYCGPGERNFDLCFML,soluble

# Source: the DeepSol protein solubility set
